Experimental findings from publication PMC5115986 (Journal of molecular biology, 2016) are described below.

For one experiment, the target named is T1, GST-Dbf4 (budding yeast, UniProt P32325 1-704).
T1 sequence (looked up): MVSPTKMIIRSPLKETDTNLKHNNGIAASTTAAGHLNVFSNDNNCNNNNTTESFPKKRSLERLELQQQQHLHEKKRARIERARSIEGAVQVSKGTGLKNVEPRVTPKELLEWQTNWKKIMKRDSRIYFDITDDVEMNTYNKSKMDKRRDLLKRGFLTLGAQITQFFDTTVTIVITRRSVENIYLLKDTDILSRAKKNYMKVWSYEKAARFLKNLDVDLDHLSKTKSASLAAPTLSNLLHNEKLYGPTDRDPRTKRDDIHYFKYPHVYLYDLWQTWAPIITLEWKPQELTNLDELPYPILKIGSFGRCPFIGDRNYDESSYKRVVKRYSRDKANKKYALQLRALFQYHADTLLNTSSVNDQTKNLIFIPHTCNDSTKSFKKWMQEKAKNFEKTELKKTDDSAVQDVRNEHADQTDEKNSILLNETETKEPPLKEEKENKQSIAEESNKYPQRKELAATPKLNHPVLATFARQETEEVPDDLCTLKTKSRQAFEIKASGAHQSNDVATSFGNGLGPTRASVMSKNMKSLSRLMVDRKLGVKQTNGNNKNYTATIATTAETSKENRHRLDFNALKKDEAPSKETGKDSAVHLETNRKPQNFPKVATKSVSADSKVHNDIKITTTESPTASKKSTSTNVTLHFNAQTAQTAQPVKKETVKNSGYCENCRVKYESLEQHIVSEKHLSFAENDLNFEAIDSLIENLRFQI
The experiment is described as follows: pull-down.

The next experiment deals with T2, GST-Cdc45 (budding yeast, UniProt Q08032 1-650).
T2 sequence (looked up): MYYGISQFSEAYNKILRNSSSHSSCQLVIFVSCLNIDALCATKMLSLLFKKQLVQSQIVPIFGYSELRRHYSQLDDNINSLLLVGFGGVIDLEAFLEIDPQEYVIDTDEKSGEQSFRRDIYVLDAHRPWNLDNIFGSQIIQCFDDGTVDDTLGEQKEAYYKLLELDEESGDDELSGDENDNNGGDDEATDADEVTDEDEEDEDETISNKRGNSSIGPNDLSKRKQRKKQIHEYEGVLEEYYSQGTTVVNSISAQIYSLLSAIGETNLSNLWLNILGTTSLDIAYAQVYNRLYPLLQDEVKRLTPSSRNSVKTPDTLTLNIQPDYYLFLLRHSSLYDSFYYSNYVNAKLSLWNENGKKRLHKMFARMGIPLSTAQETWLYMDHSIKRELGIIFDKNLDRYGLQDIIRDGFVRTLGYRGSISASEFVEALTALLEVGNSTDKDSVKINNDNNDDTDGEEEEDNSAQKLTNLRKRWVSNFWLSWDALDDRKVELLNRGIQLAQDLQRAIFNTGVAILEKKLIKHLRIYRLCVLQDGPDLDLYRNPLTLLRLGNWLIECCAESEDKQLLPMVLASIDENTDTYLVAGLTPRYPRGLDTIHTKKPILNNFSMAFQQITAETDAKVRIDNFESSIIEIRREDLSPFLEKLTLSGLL
The experiment is described as follows: pull-down.

B1: PKA-Mcm10 (wild-type), radiolabeled (natural protein, Saccharomyces cerevisiae, UniProt P32354 1-571, looked up)
chain: MNDPREILAVDPYNNITSDEEDEQAIARELEFMERKRQALVERLKRKQEFKKPQDPNFEAIEVPQSPTKNRVKVGSHNATQQGTKFEGSNINEVRLSQLQQQPKPPASTTTYFMEKFQNAKKNEDKQIAKFESMMNARVHTFSTDEKKYVPIITNELESFSNLWVKKRYIPEDDLKRALHEIKILRLGKLFAKIRPPKFQEPEYANWATVGLISHKSDIKFTSSEKPVKFFMFTITDFQHTLDVYIFGKKGVERYYNLRLGDVIAILNPEVLPWRPSGRGNFIKSFNLRISHDFKCILEIGSSRDLGWCPIVNKKTHKKCGSPINISLHKCCDYHREVQFRGTSAKRIELNGGYALGAPTKVDSQPSLYKAKGENGFNIIKGTRKRLSEEEERLKKSSHNFTNSNSAKAFFDEKFQNPDMLANLDNKRRKIIETKKSTALSRELGKIMRRRESSGLEDKSVGERQKMKRTTESALQTGLIQRLGFDPTHGKISQVLKSSVSGSEPKNNLLGKKKTVINDLLHYKKEKVILAPSKNEWFKKRSHREEVWQKHFGSKETKETSDGSASDLEII
modifications: 32P label put on the PKA tag by protein kinase A with [gamma-32P]-ATP
B1: in the experiment with GST-Dbf4, the binding result was “binds”.

B2: PKA-Mcm10-m2,3,4 (Mcm10-K216E-N313E-K314E), radiolabeled (natural protein, Saccharomyces cerevisiae, UniProt P32354 1-571, looked up)
chain: MNDPREILAVDPYNNITSDEEDEQAIARELEFMERKRQALVERLKRKQEFKKPQDPNFEAIEVPQSPTKNRVKVGSHNATQQGTKFEGSNINEVRLSQLQQQPKPPASTTTYFMEKFQNAKKNEDKQIAKFESMMNARVHTFSTDEKKYVPIITNELESFSNLWVKKRYIPEDDLKRALHEIKILRLGKLFAKIRPPKFQEPEYANWATVGLISHESDIKFTSSEKPVKFFMFTITDFQHTLDVYIFGKKGVERYYNLRLGDVIAILNPEVLPWRPSGRGNFIKSFNLRISHDFKCILEIGSSRDLGWCPIVEEKTHKKCGSPINISLHKCCDYHREVQFRGTSAKRIELNGGYALGAPTKVDSQPSLYKAKGENGFNIIKGTRKRLSEEEERLKKSSHNFTNSNSAKAFFDEKFQNPDMLANLDNKRRKIIETKKSTALSRELGKIMRRRESSGLEDKSVGERQKMKRTTESALQTGLIQRLGFDPTHGKISQVLKSSVSGSEPKNNLLGKKKTVINDLLHYKKEKVILAPSKNEWFKKRSHREEVWQKHFGSKETKETSDGSASDLEII
modifications: 32P label put on the PKA tag by protein kinase A with [gamma-32P]-ATP
For the molecule B2, the binding result in the experiment with GST-Cdc45 and with GST-Dbf4 was “binds” throughout.
